Results reported in patent US20200256882A1, “FLUID PROPERTY MEASUREMENT DEVICES AND METHODS” (Abram Scientific, Inc., priority 2019, published 2020).

Tested on: whole blood samples (extrinsic coagulation pathway)
Assay: Thromboelastogram (TEG) coagulation test on disposable test strip
Type: biochemical
Conditions: blood samples with increasing concentrations, 0 to 1.8 nM; FIG. 19(b)
Protocol: The disposable test strips used in this example were incorporated with a reagent comprising of rabbit brain thromboplastin (Pacific Hemostasis Prothrombin Time reagent, Thromboplastin-DS, Product# 29-227-3), calcium chloride (25 mM) and Tween (2% v/v aqueous solution). Prior to the final assembly of the strip, the reagent was incorporated by dispensing the solution on to the exposed hydrophilic surface in the bottom stack, followed by air-drying in a drying box with humidity control at standard room temperature and pressure. The ratio of the volume of the reagent to blood tested in the chamber was maintained at close to 2:1 to ensure successful initiation of the blood coagulation reaction. […] Lastly, in some tests, blood samples were also tested using 2 Haemonetics' TEG-5000 instruments (2 tests per instrument) and their corresponding TEG curve & parameters were recorded, in order to perform side-by-side comparison with the results generated using the disposable test strips. Results: • In this example, the oscillation characteristics (amplitude and phase) of the in-plane vibration mode of a physical element in single-use disposable test strips were measured as a function of frequency in the vicinity of the resonance frequency, and these amplitude & phase frequency scans were monitored periodically to determine different aspects of the blood coagulation cascade. […]

B1: tPA: tissue plasminogen activator, enhances the external fibrinolysis process (protein, UniProt P00750 36-562, looked up)
Tissue-type plasminogen …: SYQVICRDEKTQMIYQQHQSWLRPVLRSNRVEYCWCNSGRAQCHSVPVKSCSEPRCFNGGTCQQALYFSDFVCQCPEGFAGKCCEIDTRATCYEDQGISYRGTWSTAESGAECTNWNSSALAQKPYSGRRPDAIRLGLGNHNYCRNPDRDSKPWCYVFKAGKYSSEFCSTPACSEGNSDCYFGNGSAYRGTHSLTESGASCLPWNSMILIGKVYTAQNPSAQALGLGKHNYCRNPDGDAKPWCHVLKNRRLTWEYCDVPSCSTCGLRQYSQPQFRIKGGLFADIASHPWQAAIFAKHRRSPGERFLCGGILISSCWILSAAHCFQERFPPHHLTVILGRTYRVVPGEEEQKFEVEKYIVHKEFDDDTYDNDIALLQLKSDSSRCAQESSVVRTVCLPPADLQLPDWTECELSGYGKHEALSPFYSERLKEAHVRLYPSSRCTSQHLLNRTVTDNMLCAGDTRSGGPQANLHDACQGDSGGPLVCLNDGRMTLVGIISWGLGCGQKDVPGVYTKVTNYLDWIRDNMRP
- fibrinolysis rate Lys-Rate: increasing trend
